Test results taken from PMC3979106 (Structure(London, England:1993), 2014).

T1: Human Ube2T Ser5Arg (human, UniProt Q9NPD8 1-197, Ser5Arg)
T1 construct: Ube2T, human, point mutant; also called Ser5Arg-Ube2T; source: E. coli, expressed as WT protein, purified; not shown: 6xHis-Smt3, N-terminal, cleaved
T1 sequence (looked up): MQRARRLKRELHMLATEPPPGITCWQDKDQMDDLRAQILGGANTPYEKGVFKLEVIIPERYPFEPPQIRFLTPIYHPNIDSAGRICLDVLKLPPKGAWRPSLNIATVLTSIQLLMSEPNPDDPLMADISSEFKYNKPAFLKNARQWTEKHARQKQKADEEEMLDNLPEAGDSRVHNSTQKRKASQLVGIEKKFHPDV

T2: Human Ube2T Arg99Ser/Ser101Arg (human, UniProt Q9NPD8 1-197, Arg99Ser | Ser101Arg)
T2 construct: Ube2T, human, double point mutant; also called Arg99Ser/Ser101Arg-Ube2T; source: E. coli, expressed as WT protein, purified; not shown: 6xHis-Smt3, N-terminal, cleaved
T2 sequence (looked up): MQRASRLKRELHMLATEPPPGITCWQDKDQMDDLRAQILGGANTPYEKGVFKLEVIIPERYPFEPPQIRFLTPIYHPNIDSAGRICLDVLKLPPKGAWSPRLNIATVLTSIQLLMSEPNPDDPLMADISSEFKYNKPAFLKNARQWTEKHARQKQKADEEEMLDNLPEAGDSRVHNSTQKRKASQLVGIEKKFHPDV


What was measured:
Ube2T (Homo sapiens) = Ube2T (Homo sapiens) (UniProt Q9NPD8); conditions: cited from earlier work
Human Ube2T Ser5Arg = target: T1, Human Ube2T Ser5Arg; experiment: SEC; analytical size-exclusion chromatography, Superdex 75 10/300; RING domain and one E2 incubated 1 hr on ice in 0.1 M NaCl, 0.1 M Tris pH 8, 250 μM TCEP; complex read as a peak shift to the left; conditions: both partners purified
[1] = target: T2, Human Ube2T Arg99Ser/Ser101Arg; experiment: as above; conditions: both partners purified

Chain of FANCL (Q9NW38 2-375): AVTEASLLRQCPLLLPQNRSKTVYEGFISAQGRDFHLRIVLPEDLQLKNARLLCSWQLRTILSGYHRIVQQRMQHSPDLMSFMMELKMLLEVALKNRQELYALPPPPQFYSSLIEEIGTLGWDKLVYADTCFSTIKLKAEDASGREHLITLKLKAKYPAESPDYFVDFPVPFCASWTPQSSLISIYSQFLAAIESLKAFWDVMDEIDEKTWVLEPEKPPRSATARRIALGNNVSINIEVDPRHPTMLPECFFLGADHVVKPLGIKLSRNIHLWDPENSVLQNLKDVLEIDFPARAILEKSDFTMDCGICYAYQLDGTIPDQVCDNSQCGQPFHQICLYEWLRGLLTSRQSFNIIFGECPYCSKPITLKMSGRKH

Row | binding result (Human Ube2T Ser5Arg) | binding result [1] | Molecule | Kd (Ube2T (Homo sapiens)) [nM]
1 | – | – | FANCL (from UniProt Q9NW38) | 500
2 | binds | binds | Human FANCL RING domain (residues 289–375) (domain or fragment, UniProt Q9NW38 289-375, looked up, FANCL, human, RING domain, residues 289-375, cloned from synthetic codon-optimised human FANCL DNA (GeneArt); also called WT RING; source: E. coli BL21, purified (Ni-NTA, Ulp1 cleavage, Superdex); not shown: 6xHis-Smt3, N-terminal, cleaved) EIDFPARAILEKSDFTMDCGICYAYQLDGTIPDQVCDNSQCGQPFHQICLYEWLRGLLTSRQSFNIIFGECPYCSKPITLKMSGRKH | –
